Results published in patent US20100292089A1 (CYTOS BIOTECHNOLOGY, published 2010).

T1: Qβ (RNA bacteriophage Qbeta, UniProt P03615 2-133)
T1 construct: The description says it is a VLP of RNA bacteriophage Qbeta; also called Qbeta; VLP of RNA bacteriophage Qbeta
T1 sequence: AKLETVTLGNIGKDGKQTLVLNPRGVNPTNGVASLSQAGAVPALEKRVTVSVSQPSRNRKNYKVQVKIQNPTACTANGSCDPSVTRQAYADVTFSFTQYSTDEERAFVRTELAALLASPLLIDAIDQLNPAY


Columns and labels:
Qβ [1] = biological target: T1, Qβ; experiment: ELISA, Qβ coated, purified scFv-Fc titrated; concentration of half-maximal binding
Qβ [2] = biological target: T1, Qβ; experiment: ELISA, Qβ coated, purified IgG2; range of concentrations of half-maximal binding
Qβ [3] = biological target: T1, Qβ; experiment: ELISA, Qβ coated, purified Fab; range of concentrations of half-maximal binding

Row | Binder | EC50 (Qβ [1]) [nM] | EC50 (Qβ [2]) [nM] | other results
1 | scFv-Qb#8-Fc (Fc fusion, The entry may contain the signal peptide; also called pCEP/scFvQb#8-Fc product) scFv: DADPAQAAELVVTQEPSVSGAPGQSVTISCTGGSSNIGASYDVHWYKQLPGAAPILLIYANYIRPSGVPDRFSASKSGTSASLAITGLQAEDEADYYCQSYDSSLSGVVFGGGTKLTVLGGGSSRSSSSGGGGSGGGGQVQLQESGGGWVQSGGSLRLSCAASGFSFSSYAMSWVRQAPGKGLEWVSAMSPIGGSTFYADSVKGRFTISRDNSKNTLFLQMNSLRAEDTAVYYCAKDAVVTAVGLGRYFDLWGRGTLVSVSSASTKGPSVTSGQAGRKLTHTCPPCPAPEAEGAPSVFLFPPKPKDTLMISRTPEVTCVVVDVSHEDPEVKFNWYVDGVEVHNAKTKPREEQYNSTYRVVSVLTVLHQDWLNGKEYKCKVSNKALPASIEKTISKAKGQPREPQVYTLPPSRDELTKNQVSLTCLVKGFYPSDIAVEWESNGQPENNYKTTPPVLDSDGSFFLYSKLTVDKSRWQQGNVFSCSVMHEALHNHYTQKSLSLSPGK | 0.163 |  | 
2 | scFv-Qb#3-Fc (Fc fusion, The entry may contain the signal peptide; also called pCEP/scFvQb#3-Fc product) scFv: DADPAQAAELVMTQSPSSLSASVGDRVTITCRASQGVSRALAWYQQKPGNPPKLLIYDASNLQSGVPSRFSGGGSGTEFILTISSLQPEDFATYYCQQYNAYPWTFGQGTKLEIKGGSSRSSSSGGGGSGGGGQVQLQESGPGLVKPSETLSLTCTVSGGSISSGNYYWSWIRQTPEKGLEWLGYVHYTGSSKLNPSLKSRVTISVDTYTNQFSLSLSSMTAADTAVYYCARGKNCANDICYIGSWFDPWGQGTLVTVSSASTKGPSVTSGQAGRKLTHTCPPCPAPEAEGAPSVFLFPPKPKDTLMISRTPEVTCVVVDVSHEDPEVKFNWYVDGVEVHNAKTKPREEQYNSTYRVVSVLTVLHQDWLNGKEYKCKVSNKALPASIEKTISKAKGQPREPQVYTLPPSRDELTKNQVSLTCLVKGFYPSDIAVEWESNGQPENNYKTTPPVLDSDGSFFLYSKLTVDKSRWQQGNVFSCSVMHEALHNHYTQKSLSLSPGK | 0.035 |  | 
3 | Qb#3 whole IgG2 (antibody, V domains shown, domain: γ2 heavy chain constant region; also called Qβ#3 IgG2; pCB15-Qb#3-IgG2 product; not shown: human κ light chain constant region (vector pCMV-LC)) VH: QVQLQESGPGLVKPSETLSLTCTVSGGSISSGNYYWSWIRQTPEKGLEWLGYVHYTGSSKLNPSLKSRVTISVDTYTNQFSLSLSSMTAADTAVYYCARGKNCANDICYIGSWFDPWGQGTLVTVSS VL: ELVMTQSPSSLSASVGDRVTITCRASQGVSRALAWYQQKPGNPPKLLIYDASNLQSGVPSRFSGGGSGTEFILTISSLQPEDFATYYCQQYNAYPWTFGQGTKLEIK |  | 0.015 to 0.037 | 
4 | Qb#3 Fab fragment (Fab, V domains shown, domain: γ2 heavy chain Fd region; The Fd part is from human γ2; also called Qβ#3 Fab; pCB15-Qb#3-Fab product; not shown: human κ light chain constant region (vector pCMV-LC)) VH: QVQLQESGPGLVKPSETLSLTCTVSGGSISSGNYYWSWIRQTPEKGLEWLGYVHYTGSSKLNPSLKSRVTISVDTYTNQFSLSLSSMTAADTAVYYCARGKNCANDICYIGSWFDPWGQGTLVTVSS VL: ELVMTQSPSSLSASVGDRVTITCRASQGVSRALAWYQQKPGNPPKLLIYDASNLQSGVPSRFSGGGSGTEFILTISSLQPEDFATYYCQQYNAYPWTFGQGTKLEIK |  |  | EC50 (Qβ [3]): 0.077 to 0.239 nM
5 | Qb#2 whole IgG2 (antibody, V domains shown, domain: γ2 heavy chain constant region; also called Qβ#2 IgG2; pCB15-Qb#2-IgG2 product) VH: EVQLLESGPGLVKPSETLSLTCTVSGGSISSGNYYWSWIRQTPEKGLEWLGYVHYTGSSKLNPSLKSRVTISVDTYTNQFSLSLSSMTAADTAVYYCARGKNCANDICYIGSWFDPWGQGTLVTVSS VL: ELGLTQPPSVSGAPGQRVTISCTGSSSNIGRFDVHWYQQLPGTAPKLLIYGNTNRPSGVPDRFSGSKSGSSASLAITGLQAEDEADYYCQSYDRSLSGVVFGGGTQLTVLG |  | 0.025 to 0.056 | 
6 | Qb#2 Fab fragment (Fab, V domains shown, domain: γ2 heavy chain Fd region; The Fd part is from human γ2; also called Qβ#2 Fab; pCB15-Qb#2-Fab product; not shown: human κ light chain constant region (vector pCMV-LC)) VH: EVQLLESGPGLVKPSETLSLTCTVSGGSISSGNYYWSWIRQTPEKGLEWLGYVHYTGSSKLNPSLKSRVTISVDTYTNQFSLSLSSMTAADTAVYYCARGKNCANDICYIGSWFDPWGQGTLVTVSS VL: ELGLTQPPSVSGAPGQRVTISCTGSSSNIGRFDVHWYQQLPGTAPKLLIYGNTNRPSGVPDRFSGSKSGSSASLAITGLQAEDEADYYCQSYDRSLSGVVFGGGTQLTVLG |  |  | EC50 (Qβ [3]): 0.261 to 0.454 nM
7 | scFv-Qb#5-Fc (Fc fusion, The entry may contain the signal peptide; also called pCEP/scFvQb#5-Fc product) scFv: DADPAQAAELVLTQPPSVSGAPGQRVSISCTGSSSNIGARYDVHWYQQLPGTAPKLLIYGNTNRPSGVPDRFSGSKSGSSASLAITGLQAEDEADYYCQSYDRSLSGVVFGGGTKLTVLGGGSSRSSSSGGGGSGGGGEVQLVQSGPGLVKPSETLSLTCTVSGGSISSTSYSWGWIRQPPGKGLEWIATVSYSGRSYSNPSLKSRVTTSVDTSKNQFSLRLGSVTAADTAVYYCARLYYIWRSYHSGRFDYWGQGTLVPVSSASTKGPSVTSGQAGRKLTHTCPPCPAPEAEGAPSVFLFPPKPKDTLMISRTPEVTCVVVDVSHEDPEVKFNWYVDGVEVHNAKTKPREEQYNSTYRVVSVLTVLHQDWLNGKEYKCKVSNKALPASIEKTISKAKGQPREPQVYTLPPSRDELTKNQVSLTCLVKGFYPSDIAVEWESNGQPENNYKTTPPVLDSDGSFFLYSKLTVDKSRWQQGNVFSCSVMHEALHNHYTQKSLSLSPGK | 0.052 |  | 
8 | Qb#8 whole IgG2 (antibody, V domains shown, domain: γ2 heavy chain constant region; also called Qβ#8 IgG2; pCB15-Qb#8-IgG2 product; not shown: human κ light chain constant region (vector pCMV-LC)) VH: QVQLQESGGGWVQSGGSLRLSCAASGFSFSSYAMSWVRQAPGKGLEWVSAMSPIGGSTFYADSVKGRFTISRDNSKNTLFLQMNSLRAEDTAVYYCAKDAVVTAVGLGRYFDLWGRGTLVSVSS VL: ELVVTQEPSVSGAPGQSVTISCTGGSSNIGASYDVHWYKQLPGAAPILLIYANYIRPSGVPDRFSASKSGTSASLAITGLQAEDEADYYCQSYDSSLSGVVFGGGTKLTVLG |  | 0.456 to 1.1 | 
9 | Qb#5 whole IgG2 (antibody, V domains shown, domain: γ2 heavy chain constant region; also called Qβ#5 IgG2; pCB15-Qb#5-IgG2 product; not shown: human κ light chain constant region (vector pCMV-LC)) VH: EVQLVQSGPGLVKPSETLSLTCTVSGGSISSTSYSWGWIRQPPGKGLEWIATVSYSGRSYSNPSLKSRVTTSVDTSKNQFSLRLGSVTAADTAVYYCARLYYIWRSYHSGRFDYWGQGTLVPVSS VL: ELVLTQPPSVSGAPGQRVSISCTGSSSNIGARYDVHWYQQLPGTAPKLLIYGNTNRPSGVPDRFSGSKSGSSASLAITGLQAEDEADYYCQSYDRSLSGVVFGGGTKLTVLG |  | 0.021 to 0.054 | 
10 | Qb#5 Fab fragment (Fab, V domains shown, domain: γ2 heavy chain Fd region; The Fd part is from human γ2; also called Qβ#5 Fab; pCB15-Qb#5-Fab product; not shown: human κ light chain constant region (vector pCMV-LC)) VH: EVQLVQSGPGLVKPSETLSLTCTVSGGSISSTSYSWGWIRQPPGKGLEWIATVSYSGRSYSNPSLKSRVTTSVDTSKNQFSLRLGSVTAADTAVYYCARLYYIWRSYHSGRFDYWGQGTLVPVSS VL: ELVLTQPPSVSGAPGQRVSISCTGSSSNIGARYDVHWYQQLPGTAPKLLIYGNTNRPSGVPDRFSGSKSGSSASLAITGLQAEDEADYYCQSYDRSLSGVVFGGGTKLTVLG |  |  | EC50 (Qβ [3]): 0.082 to 0.236 nM
11 | scFv-Qb#2-Fc (Fc fusion, also called pCEP/scFvQb#2-Fc product) scFv: DADPAQAAELGLTQPPSVSGAPGQRVTISCTGSSSNIGRFDVHWYQQLPGTAPKLLIYGNTNRPSGVPDRFSGSKSGSSASLAITGLQAEDEADYYCQSYDRSLSGVVFGGGTQLTVLGGGSSRSSSSGGGGSGGGGEVQLLESGPGLVKPSETLSLTCTVSGGSISSGNYYWSWIRQTPEKGLEWLGYVHYTGSSKLNPSLKSRVTISVDTYTNQFSLSLSSMTAADTAVYYCARGKNCANDICYIGSWFDPWGQGTLVTVSSASTKGPSVTSGQAGRKLTHTCPPCPAPEAEGAPSVFLFPPKPKDTLMISRTPEVTCVVVDVSHEDPEVKFNWYVDGVEVHNAKTKPREEQYNSTYRVVSVLTVLHQDWLNGKEYKCKVSNKALPASIEKTISKAKGQPREPQVYTLPPSRDELTKNQVSLTCLVKGFYPSDIAVEWESNGQPENNYKTTPPVLDSDGSFFLYSKLTVDKSRWQQGNVFSCSVMHEALHNHYTQKSLSLSPGK | 0.051 |  | 
